The source of these data is paper PMC9792896, “Lack of ApoE inhibits ADan amyloidosis in a mouse model of familial Danish dementia” (The Journal of Biological Chemistry, 2022).

This series deals with the molecule itself. Briefly: thioflavin-T aggregation assay; 30 μM peptide in PBS with 20 μM Th-T, pH 7.2, 100 μl in black 96-well nonbinding plate, 37 °C, fluorescence (ex 440 nm, em 495 nm) every 15 min for 18 h; peptide alone.

B1: ADan amyloid peptide (peptide)
peptide: EASNCFAIRHFENKFAVETLICFNLFLNSQEKHY
notes: 34 aa amyloid peptide released by pro-protein convertases from the familial Danish dementia (FDD) mutant form of human BRI2 (ITM2B); The first 22 residues are as in wild-type BRI2; Reconstituted in hexafluoroisopropanol (1 mg/ml, 7 days), stock in dimethyl sulfoxide, diluted in PBS; also called Danish amyloid; source: synthetic peptide (ERI Amyloid Laboratory)
As to B1, the binding result is on record as “binds”.
